Data published in US20250206839A1, “METHODS, COMPOSITIONS AND USES FOR SEMA7A MONOCLONAL ANTIBODIES” (THE REGENTS OF THE UNIVERSITY OF COLORADO, A BODY CORPORATE, priority 2022, published 2025).
“Also recorded” adds a separate entry of the source.

Tests used:
SEMA7A expressing cells = assay: Mammosphere formation and cell death in vitro; assay type: cell-based
Description: In another exemplary method, it was observed that SEMA7A was sufficient to promote stem cell phenotypes, including mammosphere formation, anchorage independent growth and resistance to chemotherapy, which is a property of cancer stem cells. Finally. SEMA7A expressing cells display increased functions and markers of cancer stem cells.
MCF10A and MCF12A cells were labeled with CellTrace Violet (ThermoFisher: #C34557) for 20 min at 37° C., according to the manufacturer's instructions. A sample of labeled cells was analyzed by flow cytometry to determine labeling efficiency and fluorescent intensity at time of seeding. Single cells were seeded at a density of 4000 cells/well in μltra-low attachment 24-well plates to induce mammosphere formation. Cells were cultured in normal culture media for 7 days and were subsequently counted, dissociated enzymatically in Accutase, (Stem Cell Technologies, Vancouver, Canada: #07922), and analyzed by flow cytometry. See flow cytometry methods for detailed information.

TC11 cells = assay: Cell viability, crystal violet, 48 h; assay type: cell-based, mouse; details: TC11, 500 nM SmAbH1 vs 8 nM Fulvestrant
Description: (§1) For proliferation assays, cells were plated at 2000 cells per well of a 96-well dish. Four pictures of different regions in each well were taken every four hours for 48 h using an IncuCyte ZOOM (Essen BioScience, Ann Arbor, MI, USA). Percent confluence was determined using the IncuCyte ZOOM software (Essen BioScience). 66cl4 Sema7A DDK cells were plated in a 96-well plate in triplicate at 1,500 cells/well. They sat down over 24 hours and then were treated with 1000 nM IgG control, 10 nM SmAbH1, 100 nM SmAbH1, 200 nM SmAbH1, 500 nM SmAbH1, or 1000 nM SmAbH1. The plate was promptly transferred to the IncuCyte where photos were taken and analyzed every 4 hours for 7 days. For additional treatment studies in MCF7, TC11 and SSM2 cells ([…]) were plated in a 24-well plate in complete media and allowed to sit down over 24 hours. At 24 hours after plating, cells were treated with 500 nM IgG control, 500 nM SmAbH1, 8 nM Fulvestrant or the combination. The plate was incubated at 37 C for 48 hours, then fixed with 10% NBF and stained with crystal violet.

SSM2 cells = assay: Cell viability, crystal violet, 48 h; assay type: cell-based, mouse; details: SSM2, 500 nM SmAbH1 vs 8 nM Fulvestrant
Description: as §1

[1] = tested on: MCF10ADCIS GFP human breast cancer cells; assay: DCIS mouse model, tumor growth and invasion; assay type: in vivo; details: IP every third day from day 21
Description: DCIS model: Female SHO mice, aged 6-8 weeks old, are injected with 250,000 MCF10ADCIS GFP human breast cancer cells into both #4 mammary fat pads, then palpated and measured three times a week with digital calipers and tumor visualization is aided by use of the illumatool light source with GFP filter so we can accurately measure tumors. Treatment with SmAb started at day 21 post injection. SmAb treatment is given by IP injection every third day. Weights are taken every treatment day and mice are monitored for weight loss and other health/behavior changes.

66cl4 Sema7A DDK cells = assay: IncuCyte percent confluence time course; assay type: cell-based, mouse
Description: as §1

pSTAT3 in MDA468 cells = assay: Western blot for phosphorylation of STAT3; assay type: cell-based, human; details: MDA468, low SEMA7A
Description: (§2) In another exemplary method the human triple negative breast cancer cell lines with low (MDA468) or high (MDA231) levels of SEMATA were again treated with SmAbH1 (CUH1) or commercially available monoclonal antibody-based inhibitors of an integrin receptor for SEMA7A (α6β1) and then evaluated using Western blot for phosphorylation of STAT3 (pSTAT3).

pSTAT3 in MDA231 cells = assay: Western blot for phosphorylation of STAT3; assay type: cell-based, human; details: MDA231, high SEMA7A
Description: as §2

purified SEMA7A = biological target: T1, purified SEMA7A (Homo sapiens, UniProt O75326); assay: ELISA binding to purified SEMA7A; details: serial dilution
T1 construct: Fc; made in house; host or cells: cells stably transfected with SEMA7A-Fc plasmid (human breast cancer cells); purified from medium
T1 sequence (O75326 45-648 limits assumed): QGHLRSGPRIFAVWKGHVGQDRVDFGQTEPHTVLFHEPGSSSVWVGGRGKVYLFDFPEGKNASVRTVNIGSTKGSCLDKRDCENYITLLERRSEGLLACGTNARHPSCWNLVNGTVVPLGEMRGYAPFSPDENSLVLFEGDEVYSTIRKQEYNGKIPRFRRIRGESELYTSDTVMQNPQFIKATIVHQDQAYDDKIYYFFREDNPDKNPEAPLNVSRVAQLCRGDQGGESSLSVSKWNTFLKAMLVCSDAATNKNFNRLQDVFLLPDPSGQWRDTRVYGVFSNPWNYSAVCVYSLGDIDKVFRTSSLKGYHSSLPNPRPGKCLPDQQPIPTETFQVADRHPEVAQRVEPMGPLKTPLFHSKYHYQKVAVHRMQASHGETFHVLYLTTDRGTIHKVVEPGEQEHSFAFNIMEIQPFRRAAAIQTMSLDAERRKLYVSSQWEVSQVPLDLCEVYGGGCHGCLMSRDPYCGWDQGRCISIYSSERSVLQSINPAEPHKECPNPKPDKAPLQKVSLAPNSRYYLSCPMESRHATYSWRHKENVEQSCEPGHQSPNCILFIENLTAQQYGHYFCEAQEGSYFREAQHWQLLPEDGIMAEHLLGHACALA
Description: The MultiSorp ELISA 96 well ELISA plate (Thermo Scientific) was coated with 100 μl per well of 50 μg/ml of purified SEMA7A in Coating Buffer A (Thermo Scientific CB07100) and allowed to attach overnight with gentle rocking at 4 degrees. For the peptide competition, half of the antibody was incubated in an Eppendorf tube overnight at a ratio of 1:10 with the SEMA7A peptide on a rotator at 4 degrees. The plate was washed with 200 μl per well of 1× wash buffer (Thermo Scientific WB01) and blocked with 200 μl 1× assay buffer (Thermo Scientific DS98200) for 2 hours and room temp with gentle rocking. 1× assay buffer was removed and a 200 μl serial dilution of SMEA7A mAb in 1× assay buffer was made from columns 1 through 9, with column 10-12 getting 1× assay buffer only. The plate was incubated overnight with gentle rocking at 4 degrees. The plate was washed twice with 200 μl of 1× wash buffer. 100 μl of 200 ng/ml Goat Anti-Mouse IgG HRP (Abcam 97040) in 1× assay buffer was added to columns 1-11, with column 12 getting 1× assay buffer only. The plate was incubated for 2 hours with gentle rocking at room temp. The plate was washed four times with 200 μl 1× wash buffer. 150 μl SuperSignal Femto for ELISA (Thermo Scientific) was mixed 1:1 added to each well and mixed for 1 min and then left to rock at room temperature for 30 minutes. The absorbance was read at 425 nm on a microplate reader.

B1: SmAbH1: mouse monoclonal antibody against SEMA7A generated using the 10-mer immunizing peptide … (SEQ ID NO: 2) (antibody, V domains shown)
VH: QVKLQESGTVLARPGASVKMSCKASVYSFTSYWMHWVKQRPGQGLEWIGAIYPGNSDTSYNQKFKGKAKLTAVTSASTAYMELSSLTNEDSAVYYCTRGGAPTMITAYYAMDYWGQGTSVTVSS
VL: DIQMTQTTSSLSASLGDRVTISCRASQDISNYLNWYQQKPDGTVKLLIYYTSRLHSGVPSRFSGSGSGTDYSLTISNLEQEDIATYFCQQGNTLPWTFGGGTKLEIKR
cell death (SEMA7A expressing cells): induce cell death
mammosphere formation (SEMA7A expressing cells): reduce mammosphere formation
cell viability compared to fulvestrant (TC11 cells): more significantly reduced
cell viability compared to fulvestrant (SSM2 cells): more significantly reduced
tumor growth and invasion of ductal carcinoma in situ (DCIS) lesions [1]: block or inhibit tumor growth and invasion
viability / percent confluence over time (66cl4 Sema7A DDK cells; 66cl4, 10-1000 nM SmAbH1, 7 days): decreased viability; also recorded: dose dependency
decrease of cellular confluence compared to commercially available SEMA7A directed antibodies (66cl4 Sema7A DDK cells; 66cl4 DDK and DDK SEMA7A cells, vs SC-374432 and Ab23578): greater than commercially available
downstream STAT3 activation (pSTAT3) (pSTAT3 in MDA468 cells): blocking block downstream STAT3 activation similar to integrin blockade
downstream STAT3 activation (pSTAT3) (pSTAT3 in MDA231 cells): blocking block downstream STAT3 activation similar to integrin blockade
binding to purified SEMA7A (purified SEMA7A): bound to purified SEMA7A in a dose dependent manner
